The text below walks through data of paper PMC4960622, “Crystal structures of RidA, an important enzyme for the prevention of toxic side products” (Scientific Reports, 2016).

Data set [1] deals with the molecule itself. As to the kind of experiment: SEC; 0.5 mg of RidA WT and mutants loaded separately onto a Superdex-75 size-exclusion column; protein standards as size reference.
Data set [2] concerns the molecule itself. As to the kind of experiment: crystal structure; apo form; space group H3, one monomer per asymmetric unit, trimer by the crystallographic 3-fold axis; sitting drop, 18% PEG 3350, 0.1 M MES pH 6.0, 25 °C.

B1: Arabidopsis thaliana RidA, construct starting from S68 (AtRidA-S68), wild type (enzyme, UniProt Q94JQ4 68-187, looked up)
chain: STEKAPAALGPYSQAIKANNLVFLSGVLGLIPETGKFVSESVEDQTEQVLKNMGEILKASGADYSSVVKTTIMLADLADFKTVNEIYAKYFPAPSPARSTYQVAALPLNAKIEIECIATL
notes: Reactive Intermediate Deaminase A (RidA), Arabidopsis thaliana, GenBank AY060547.1, residues S68-L187 (without the predicted chloroplast transit peptide); Residues S80-L187 are resolved in the crystal structures; also called RidA WT; apo-AtRidA; source: E. coli BL21 (DE3), purified (Ni-NTA, PreScission cleavage, Histrap); not shown: His6, N-terminal, cleaved
As for B1, the “stoichiometry N” value in data set [1] is around 3; in data set [2], 3.

B2: AtRidA-S68 S92A (enzyme, Arabidopsis thaliana, UniProt Q94JQ4 68-187, looked up)
chain: STEKAPAALGPYSQAIKANNLVFLAGVLGLIPETGKFVSESVEDQTEQVLKNMGEILKASGADYSSVVKTTIMLADLADFKTVNEIYAKYFPAPSPARSTYQVAALPLNAKIEIECIATL
notes: Reactive Intermediate Deaminase A (RidA), Arabidopsis thaliana, GenBank AY060547.1, residues S68-L187, made by QuikChange on the RidA-S68/pET28a(+) plasmid; The purification of the mutants is not described separately; probably as for the wild type (tag cleaved); also called RidA-S92A; source: E. coli BL21 (DE3), purified
Turning to B2, the binding result in data set [1] is “binds”.

B3: AtRidA-S68 S80A (enzyme, Arabidopsis thaliana, UniProt Q94JQ4 68-187, looked up)
chain: STEKAPAALGPYAQAIKANNLVFLSGVLGLIPETGKFVSESVEDQTEQVLKNMGEILKASGADYSSVVKTTIMLADLADFKTVNEIYAKYFPAPSPARSTYQVAALPLNAKIEIECIATL
notes: Reactive Intermediate Deaminase A (RidA), Arabidopsis thaliana, GenBank AY060547.1, residues S68-L187, made by QuikChange on the RidA-S68/pET28a(+) plasmid; The purification of the mutants is not described separately; probably as for the wild type (tag cleaved); also called RidA-S80A; source: E. coli BL21 (DE3), purified
Take B3: the binding result in data set [1] is “binds”.

B4: AtRidA-S68 E182A (enzyme, Arabidopsis thaliana, UniProt Q94JQ4 68-187, looked up)
chain: STEKAPAALGPYSQAIKANNLVFLSGVLGLIPETGKFVSESVEDQTEQVLKNMGEILKASGADYSSVVKTTIMLADLADFKTVNEIYAKYFPAPSPARSTYQVAALPLNAKIEIACIATL
notes: Reactive Intermediate Deaminase A (RidA), Arabidopsis thaliana, GenBank AY060547.1, residues S68-L187, made by QuikChange on the RidA-S68/pET28a(+) plasmid; The purification of the mutants is not described separately; probably as for the wild type (tag cleaved); also called RidA-E182A; source: E. coli BL21 (DE3), purified
B4: the binding result in data set [1] is reported as “binds”.

B5: AtRidA-S68 S166A (enzyme, Arabidopsis thaliana, UniProt Q94JQ4 68-187, looked up)
chain: STEKAPAALGPYSQAIKANNLVFLSGVLGLIPETGKFVSESVEDQTEQVLKNMGEILKASGADYSSVVKTTIMLADLADFKTVNEIYAKYFPAPSPARATYQVAALPLNAKIEIECIATL
notes: Reactive Intermediate Deaminase A (RidA), Arabidopsis thaliana, GenBank AY060547.1, residues S68-L187, made by QuikChange on the RidA-S68/pET28a(+) plasmid; The purification of the mutants is not described separately; probably as for the wild type (tag cleaved); also called RidA-S166A; source: E. coli BL21 (DE3), purified
For the protein B5, the binding result in data set [1] was “binds”.

B6: AtRidA-S68 K136R (enzyme, Arabidopsis thaliana, UniProt Q94JQ4 68-187, looked up)
chain: STEKAPAALGPYSQAIKANNLVFLSGVLGLIPETGKFVSESVEDQTEQVLKNMGEILKASGADYSSVVRTTIMLADLADFKTVNEIYAKYFPAPSPARSTYQVAALPLNAKIEIECIATL
notes: Reactive Intermediate Deaminase A (RidA), Arabidopsis thaliana, GenBank AY060547.1, residues S68-L187, made by QuikChange on the RidA-S68/pET28a(+) plasmid; The purification of the mutants is not described separately; probably as for the wild type (tag cleaved); also called RidA-K136R; source: E. coli BL21 (DE3), purified
Consider B6, for which, in data set [1], the binding result is recorded as “binds”.
